# In patent US20220298244A1 (BEIJING MABWORKS BIOTECH, published 2022):
# Residue numbers refer to the chain shown, from its start. Numbers in names are those of the source.
# B1: mouse anti-PD-L1 monoclonal antibody 3C2 (antibody, mouse IgG1, V domains shown)
# VH: QVQLNQSGPELMKAGTSVKISCKASGYSFTDYHVNWVKQRPGQGLEWIGWIFPGSGRTFYTDKFKGKATLTVDLSFTTAYIMLNSLTSEDSAVYFCATDYGTSGYGLVYWGQGTSVTVSS
# VL: DIQMTQSSSYLSVSLGGRVTISCKASDRINNWLAWYQQKPGNAPRLLISGATSLETGVPSRFSGSGSGKDYTLSITSLQTEDVAVYYCQQYWNIPFTFGSGTKLEIK
# notes: Purified from hybridoma; also called Mouse 3C2
# B2: mouse anti-PD-L1 monoclonal antibody 56E5 (antibody, mouse IgG1, V domains shown)
# VH: EVQLQESGPGLAKPSQTLSLTCSVTGYSITSDYWNWIRKFPGNKLEYMGYISYTGSTYYNPSLKSRISITRDTSKNQYYLQLNSVTTEDTATYYCARYRDWDVRAMDYWGQGTSVTVSS
# VL: DIVMTQSPSSLTVTAGEKVTMNCKSSQSLLISGNQKNFLTWYQQKPGQPPKLLIYWASTRESGVPDRFTGSGSGTDFTLTISSVQAEDLAVYYCQNDFGFPFTFGSGTKLEIK
# notes: Purified from hybridoma; also called Mouse 56E5
# B3: 3C2VH3VL3 (antibody, human IgG1, kappa, N297A, V domains shown)
# VH: QVQLVQSGAEVKKPGASVKVSCKASGYTFTDYHVNWVKQRPGQGLEWIGWIFPGSGRTFYTDKFKGRVTLTVDTSTSTVYMELSSLTSEDTAVYYCATDYGTSGYGLVYWGQGTTVTVSS
# VL: DIQMTQSPSSLSASVGDRVTISCKASDRINNWLAWYQQKPGNAPRLLISGATSLETGVPSRFSGSGSGTDYTFTISSLQPEDIATYYCQQYWNIPFTFGQGTKVEIKR
# notes: humanized 3C2 antibody
# B4: 3C2VH2VL2 (antibody, human IgG1, kappa, N297A, V domains shown)
# VH: B3 VH with K38R, R40A
# VL: B3 VL with S22T, N42K
# notes: humanized 3C2 antibody
# B5: 3C2VH2VL3 (antibody, human IgG1, kappa, N297A, V domains shown)
# VH: B3 VH with K38R, R40A
# VL: B3 VL
# notes: humanized 3C2 antibody
# B6: 3C2VH2VL4 (antibody, human IgG1, kappa, N297A, V domains shown)
# VH: B3 VH with K38R, R40A
# VL: B3 VL with T85V
# notes: humanized 3C2 antibody
# B7: 3C2VH3VL2 (antibody, human IgG1, kappa, N297A, V domains shown)
# VH: B3 VH
# VL: B3 VL with S22T, N42K
# notes: humanized 3C2 antibody
# B8: 3C2VH3VL4 (antibody, human IgG1, kappa, N297A, V domains shown)
# VH: B3 VH
# VL: B3 VL with T85V
# notes: humanized 3C2 antibody
# B9: 3C2VH4VL2 (antibody, human IgG1, kappa, N297A, V domains shown)
# VH: B3 VH with T28S, Y95F
# VL: B3 VL with S22T, N42K
# notes: humanized 3C2 antibody
# B10: 3C2VH4VL3 (antibody, human IgG1, kappa, N297A, V domains shown)
# VH: B3 VH with T28S, Y95F
# VL: B3 VL
# notes: humanized 3C2 antibody
# B11: 3C2VH5VL2 (antibody, human IgG1, kappa, N297A, V domains shown)
# VH: B3 VH with T28S, R67K, V68A, Y95F
# VL: B3 VL with S22T, N42K
# notes: humanized 3C2 antibody
# B12: 3C2VH5VL3 (antibody, human IgG1, kappa, N297A, V domains shown)
# VH: B3 VH with T28S, R67K, V68A, Y95F
# VL: B3 VL
# notes: humanized 3C2 antibody
# B13: 3C2VH5VL4 (antibody, human IgG1, kappa, N297A, V domains shown)
# VH: B3 VH with T28S, R67K, V68A, Y95F
# VL: B3 VL with T85V
# notes: humanized 3C2 antibody
# B14: humanized antibody 3C2-VH4VL4 (antibody, human IgG1, kappa, N297A, V domains shown)
# VH: B3 VH with T28S, Y95F
# VL: B3 VL with T85V
# notes: Human IgG1(N297A)/kappa
# B15: humanized antibody 3C2-VH6VL5 (antibody, human IgG1, kappa, N297A, V domains shown)
# VH: B3 VH with K38R, R40A, L70M, T87R
# VL: B3 VL with S22T, N42K, R45K, Y71F, F73L
# notes: Human IgG1(N297A)/kappa
# B16: 56E5VH2VL4 (antibody, human IgG1, kappa, N297A, V domains shown)
# VH: QVQLQESGPGLVKPSQTLSLTCTVSGGSITSDYWNWIRQHPGKGLEYMGYISYTGSTYYNPSLKSRVTITVDTSKNQFSLKLSSVTTADTAVYYCARYRDWDVRAMDYWGQGTTVTVSS
# VL: DIVMTQSPDSLAVSLGEKVTMNCKSSQSLLISGNQKNFLTWYQQKPGQPPKLLIYWASTRESGVPDRFSGSGSGTDFTLTISSLQAEDLAVYYCQNDFGFPFTFGQGTKVEIKR
# notes: humanized 56E5 antibody
# B17: 56E5VH3VL4 (antibody, human IgG1, kappa, N297A, V domains shown)
# VH: B16 VH with K43N, G44K
# VL: B16 VL
# notes: humanized 56E5 antibody
# B18: 56E5VH4VL4 (antibody, human IgG1, kappa, N297A, V domains shown)
# VH: B16 VH with K43N, G44K, V71R
# VL: B16 VL
# notes: humanized 56E5 antibody
# B19: humanized antibody 56E5-VH5VL4 (antibody, human IgG1, kappa, N297A, V domains shown)
# VH: B16 VH with K43N, G44K, V67I, T68S, V71R
# VL: B16 VL
# notes: Human IgG1(N297A)/kappa
# Target: T1, human PD-L1 expressed on HEK293A cells (human, UniProt Q9NZQ7 19-290)
# T1 construct: Full-length cDNA expressed stably; also called HEK293A/human PD-L1 cells; HEK293A/human PD-L1
# Experiment: FACS on HEK293A/human PD-L1 cells
# Description: (§1) To determine whether the anti-PD-L1 antibodies bound to human, monkey or mouse PD-L1s expressed on HEK293A cells, a cell-based binding assay was performed by FACS using the HEK293A cells stably overexpressing human, monkey and mouse PD-L1s respectively as generated in Example 1. Briefly, 10⁵ HEK293A cells in 100 μl culture medium were seeded onto each well of the 96-well plates, to which added 50 μl serially diluted anti-PD-L1 antibodies. After incubated at 4° C. for 1 hour, plates were washed 3 times with PBST. Then, APC coupled Goat Anti-Mouse IgG (Cat #:405308, BioLegend, US) diluted 500× was added to the plates. After incubation at 4° C. for 1 hour, the plates were washed with PBS for 3 times and then cell fluorescence was monitored using a FACS machine (BD).
# T1 sequence (Q9NZQ7 19-290 limits assumed): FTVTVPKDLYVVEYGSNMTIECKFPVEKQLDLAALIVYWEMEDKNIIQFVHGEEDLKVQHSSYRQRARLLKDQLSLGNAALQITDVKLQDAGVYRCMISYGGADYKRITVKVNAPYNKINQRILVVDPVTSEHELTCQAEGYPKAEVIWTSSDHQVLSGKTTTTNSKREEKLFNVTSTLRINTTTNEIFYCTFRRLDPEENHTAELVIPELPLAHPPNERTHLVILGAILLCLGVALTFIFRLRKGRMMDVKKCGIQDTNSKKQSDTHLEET
row,Binder,EC50 [nM]
1,B1,1.75
2,B2,0.572

# Target: T2, mouse PD-L1 expressed on HEK293A cells (mouse, UniProt Q9EP73 19-290)
# T2 construct: Full-length cDNA expressed stably; also called HEK293A/mouse PD-L1 cells; HEK293A/mouse PD-L1
# Experiment: FACS on HEK293A/mouse PD-L1 cells
# Description: as §1
# T2 sequence (Q9EP73 19-290 limits assumed): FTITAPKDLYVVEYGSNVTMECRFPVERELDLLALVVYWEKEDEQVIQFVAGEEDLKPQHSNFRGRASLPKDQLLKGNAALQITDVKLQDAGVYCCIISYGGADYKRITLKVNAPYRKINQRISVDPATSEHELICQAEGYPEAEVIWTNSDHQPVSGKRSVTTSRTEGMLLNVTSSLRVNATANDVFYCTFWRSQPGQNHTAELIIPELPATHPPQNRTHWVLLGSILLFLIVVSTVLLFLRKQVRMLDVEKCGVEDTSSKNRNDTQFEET
row,Binder,binding result
1,B1,no binding
2,B2,no binding

# Target: T3, monkey PD-L1 expressed on HEK293A cells (monkey (cynomolgus), UniProt Q9NZQ7 19-290 (human entry))
# T3 construct: Full-length cDNA expressed stably; also called HEK293A/monkey PD-L1 cells; HEK293A/monkey PD-L1
# Experiment: FACS on HEK293A/monkey PD-L1 cells
# Description: as §1
# T3 sequence (Q9NZQ7 other isoform, or with tags, fused parts or gaps limits assumed): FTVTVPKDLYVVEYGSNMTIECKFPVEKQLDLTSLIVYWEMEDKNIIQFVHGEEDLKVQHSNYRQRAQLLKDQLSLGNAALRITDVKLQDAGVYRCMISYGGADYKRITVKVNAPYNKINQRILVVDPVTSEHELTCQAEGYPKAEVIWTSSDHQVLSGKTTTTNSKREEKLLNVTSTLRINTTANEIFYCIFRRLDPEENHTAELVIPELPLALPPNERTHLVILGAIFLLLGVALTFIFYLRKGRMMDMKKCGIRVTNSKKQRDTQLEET
row,Binder,EC50 [nM]
1,B1,1.25
2,B2,0.499

# Target: T1, human PD-L1 expressed on HEK293A cells
# Experiment: FACS on HEK293A/human PD-L1 cells, serially diluted antibody (protocol of Example 4)
row,Binder,binding result
1,B3,binds
2,B4,binds
3,B5,binds
4,B6,binds
5,B7,binds
6,B8,binds
7,B9,binds
8,B10,binds
9,B11,binds
10,B12,binds
11,B13,binds

# Target: T3, monkey PD-L1 expressed on HEK293A cells
# Experiment: FACS on HEK293A/monkey PD-L1 cells, serially diluted antibody (protocol of Example 4)
row,Binder,binding result
1,B3,binds
2,B4,binds
3,B5,binds
4,B6,binds
5,B7,binds
6,B8,binds
7,B9,binds
8,B10,binds
9,B11,binds
10,B12,binds
11,B13,binds
12,B14,binds
13,B15,binds

# Target: T3, monkey PD-L1 expressed on HEK293A cells
# Experiment: as above
# Remark: another data set of the same source
row,Binder,binding result
1,B16,binds
2,B17,binds
3,B18,binds
4,B19,binds

# Target: T4, human PD-L1 (ECD)-his (human, UniProt Q9NZQ7 19-238)
# T4 construct: Bought protein; it is not tied to the bought construct by a sentence of its own; also called recombinant human PD-L1(ECD)-his; Cat #:10084-H08H, Sino Biological; not shown: His tag
# Experiment: SPR (BIAcore 8K), human PD-L1 (ECD)-his coupled to CM5 chip, antibody injected, 1:1 Langmuir model
# Description: (§2) These antibodies were also tested in SPR assays for their binding affinities to human and monkey PD-L1 with BIAcore™ 8K instrument (GE Life Sciences). Briefly, 100-200 response units (RU) of human PD-L1 (ECD)-his protein (Cat #:10084-H08H, Sino Biological, CN) or monkey PD-L1 (ECD)-his protein (Cat #:90251-008H, Sino Biological, CN) were coupled to CM5 biosensor chips (Cat #:BR-1005-30, GE Life Sciences, US), and the un-reacted groups were blocked with 1M ethanolamine Serially diluted antibodies at concentrations ranging from 0.3 μM to 10 μM were injected into the SPR running buffer (HBS-EP buffer, pH7.4, Cat #:BR-1006-69, GE Life Sciences, US) at 30 μL/minute. The binding affinities were calculated with the RUs of blank controls subtracted. The association rate (kₐ) and dissociation rate (kd) were calculated using the one-to-one Langmuir binding model (BIA Evaluation Software, GE Life Sciences), and the equilibrium dissociation constant KD was calculated as the kd/kₐ ratio.
# T4 sequence (Q9NZQ7 19-238): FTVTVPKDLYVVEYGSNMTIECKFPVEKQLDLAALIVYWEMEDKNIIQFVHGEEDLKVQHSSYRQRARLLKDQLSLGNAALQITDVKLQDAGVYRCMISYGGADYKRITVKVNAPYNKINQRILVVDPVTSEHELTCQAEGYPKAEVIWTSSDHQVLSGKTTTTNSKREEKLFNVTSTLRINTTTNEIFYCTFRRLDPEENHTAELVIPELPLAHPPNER
row,Binder,Kd [nM]
1,B14,0.307
2,B15,0.433
3,B19,0.518

# Target: T5, monkey PD-L1 (ECD)-his (monkey, UniProt Q9NZQ7 19-238 (human entry))
# T5 construct: Bought protein; also called Cat #:90251-C08H, Sino Biological; not shown: His tag
# Experiment: SPR (BIAcore 8K), monkey PD-L1 (ECD)-his coupled to CM5 chip, antibody injected, 1:1 Langmuir model
# Description: as §2
# T5 sequence (Q9NZQ7 other isoform, or with tags, fused parts or gaps): as the sequence (Q9NZQ7 19-238) above, with A33T, A34S, S62N, R68Q, Q82R, F173L, T185A, T192I, H215L counted along it
row,Binder,Kd [nM]
1,B14,0.245
2,B15,0.369
3,B19,0.00807

# Target: T1, human PD-L1 expressed on HEK293A cells
# Experiment: FACS blocking assay: antibody titrated on HEK293A/human PD-L1 cells, then PD1-hFc (200 µg/ml) detected
# Description: Briefly, 10⁵ HEK293A/human PD-L1 cells in 100 μl culture medium were seeded onto each well of 96-well plates, to which added 50 μl serially diluted anti-PD-L1 antibodies. After incubated at 4° C. for 1 hour, the plates were washed 3 times with PBST. […] After incubation at 4° C. for 1 hour, the plates were washed with PBST for 3 times, and added with PE coupled Goat Anti-human IgG (Cat #:PAI-86078, Thermofisher, US) diluted 500×. After incubation at 4° C. for 1 hour, the plates were washed with PBST for 3 times and then cell fluorescence was monitored using a FACS machine (BD).
row,Binder,EC50 [nM]
1,B1,0.0147
2,B2,0.01

# Target: T1, human PD-L1 expressed on HEK293A cells
# Experiment: FACS on cells, serially diluted antibody (protocol of Example 4); legend paragraph 38 gives panel A as HEK293A/human PD-L1 cells, but the title printed on the sheet reads HEK293A/monkey PDL1
row,Binder,binding result
1,B16,binds
2,B17,binds
3,B18,binds
